System: protein phosphatase 2A (PP2A), endogenous, in N27 cell lysate

recombinant pure PKCδ was tested, and the “32P-kinase assay: phosphorylation of immunoprecipitated PP2A” value was “PP2A immunoprecipitated from N27 cells was effectively phosphorylated by PKCδ immunoprecipitates as well as by recombinant pure PKCδ”.

Source: US8653023
